These are literature values, as cited in publication PMC12786138.

By Kd is commonly meant the equilibrium constant for the complex coming apart.

Values joined by “and” are separate entries in the source; they are usually repeats but may differ in a detail not shown here. Identical values can stand only once.

The target in data set [1] is SIRPα (Mus musculus) (UniProt P97797). The data set can be described thus: SPR. (In general: Surface plasmon resonance follows binding to a sensor surface in real time, without labels.)
Chain of SIRPα (Mus musculus) (P97797 32-373): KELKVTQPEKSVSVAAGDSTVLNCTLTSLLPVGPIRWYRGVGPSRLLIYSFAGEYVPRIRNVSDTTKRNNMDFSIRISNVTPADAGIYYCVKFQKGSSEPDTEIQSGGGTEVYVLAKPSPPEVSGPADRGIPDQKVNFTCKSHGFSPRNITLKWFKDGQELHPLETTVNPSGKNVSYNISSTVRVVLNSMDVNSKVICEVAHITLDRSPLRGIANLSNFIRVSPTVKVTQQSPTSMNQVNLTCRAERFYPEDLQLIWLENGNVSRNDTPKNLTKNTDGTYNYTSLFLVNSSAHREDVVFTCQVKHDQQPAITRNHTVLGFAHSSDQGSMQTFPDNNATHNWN
In data set [2] the target is SIRPα (Homo sapiens) (UniProt P78324). Kind of data set: SPR.
Chain of SIRPα (Homo sapiens) (P78324 31-373): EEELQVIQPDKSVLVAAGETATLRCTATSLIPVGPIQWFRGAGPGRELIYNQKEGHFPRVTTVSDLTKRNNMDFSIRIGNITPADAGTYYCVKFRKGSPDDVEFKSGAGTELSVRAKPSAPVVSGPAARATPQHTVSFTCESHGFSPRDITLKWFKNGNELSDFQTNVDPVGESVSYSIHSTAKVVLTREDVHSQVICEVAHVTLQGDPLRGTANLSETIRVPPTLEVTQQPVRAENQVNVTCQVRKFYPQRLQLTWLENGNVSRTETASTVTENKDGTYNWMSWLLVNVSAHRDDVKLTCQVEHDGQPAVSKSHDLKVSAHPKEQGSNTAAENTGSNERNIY
Data set [3] shares this target. The data set can be described thus: colorimetric.
In data set [4] the target is CD47 (Homo sapiens) (UniProt Q08722). Kind of data set: radiolabel competition.
Chain of CD47 (Homo sapiens) (Q08722 19-323): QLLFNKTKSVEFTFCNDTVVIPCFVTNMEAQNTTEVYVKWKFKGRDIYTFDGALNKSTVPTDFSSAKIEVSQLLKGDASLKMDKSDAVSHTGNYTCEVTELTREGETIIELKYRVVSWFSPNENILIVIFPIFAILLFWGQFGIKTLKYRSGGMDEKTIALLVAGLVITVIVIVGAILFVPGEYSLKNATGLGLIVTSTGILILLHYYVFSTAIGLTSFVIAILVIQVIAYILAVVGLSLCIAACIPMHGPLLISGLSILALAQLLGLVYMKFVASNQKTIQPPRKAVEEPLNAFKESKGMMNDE

Chain of CD47 ECD (from UniProt Q08722) (Q08722 19-323): as above
Chain of CD47 ECD (from UniProt Q61735) (Q61735 19-303): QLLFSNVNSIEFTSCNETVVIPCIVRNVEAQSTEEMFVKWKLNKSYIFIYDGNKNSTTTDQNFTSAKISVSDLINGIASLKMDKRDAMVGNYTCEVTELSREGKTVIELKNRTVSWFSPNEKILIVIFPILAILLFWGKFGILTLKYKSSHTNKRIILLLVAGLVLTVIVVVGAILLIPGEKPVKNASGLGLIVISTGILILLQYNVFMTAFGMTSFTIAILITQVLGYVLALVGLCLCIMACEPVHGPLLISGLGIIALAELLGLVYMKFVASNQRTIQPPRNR
Chain of CD47 ECD-alkaline phosphatase ECD (Q08722 19-323): as the sequence (Q08722 19-323) above
Chain of TSP1 (P07996 19-1170): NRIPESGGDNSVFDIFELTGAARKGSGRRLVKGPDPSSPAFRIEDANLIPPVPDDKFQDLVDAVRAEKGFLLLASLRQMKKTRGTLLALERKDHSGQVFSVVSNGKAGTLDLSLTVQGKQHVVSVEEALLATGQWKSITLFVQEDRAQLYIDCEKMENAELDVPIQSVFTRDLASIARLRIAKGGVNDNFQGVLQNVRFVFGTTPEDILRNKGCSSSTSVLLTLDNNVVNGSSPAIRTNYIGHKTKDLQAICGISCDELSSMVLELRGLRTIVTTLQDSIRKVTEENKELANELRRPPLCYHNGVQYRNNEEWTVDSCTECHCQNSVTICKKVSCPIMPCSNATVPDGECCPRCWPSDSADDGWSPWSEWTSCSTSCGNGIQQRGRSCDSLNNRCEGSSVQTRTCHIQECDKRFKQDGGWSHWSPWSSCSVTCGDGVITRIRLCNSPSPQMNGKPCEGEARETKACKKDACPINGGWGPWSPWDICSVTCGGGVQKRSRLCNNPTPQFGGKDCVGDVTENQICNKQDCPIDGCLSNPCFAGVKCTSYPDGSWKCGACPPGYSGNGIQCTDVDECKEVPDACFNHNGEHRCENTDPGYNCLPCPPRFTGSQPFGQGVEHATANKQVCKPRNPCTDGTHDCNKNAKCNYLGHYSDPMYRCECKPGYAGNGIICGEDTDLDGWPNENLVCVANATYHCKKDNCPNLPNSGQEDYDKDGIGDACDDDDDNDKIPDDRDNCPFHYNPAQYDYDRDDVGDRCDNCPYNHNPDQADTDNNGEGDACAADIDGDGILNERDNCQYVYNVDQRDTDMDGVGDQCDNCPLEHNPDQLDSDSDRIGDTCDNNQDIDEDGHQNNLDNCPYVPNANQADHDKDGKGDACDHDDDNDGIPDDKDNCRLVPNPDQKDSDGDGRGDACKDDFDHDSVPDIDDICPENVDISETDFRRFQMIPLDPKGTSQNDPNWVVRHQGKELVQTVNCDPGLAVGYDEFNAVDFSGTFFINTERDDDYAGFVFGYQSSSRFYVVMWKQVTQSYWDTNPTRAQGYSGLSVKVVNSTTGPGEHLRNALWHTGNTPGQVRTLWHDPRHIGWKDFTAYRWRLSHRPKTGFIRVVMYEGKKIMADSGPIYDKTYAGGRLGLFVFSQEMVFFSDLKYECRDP

In the case of CD47 ECD (from UniProt Q08722), the Kd in data set [1] is 80 nM; in data set [2], 1200 nM and 1000 nM and 200 nM.

CD47 ECD (from UniProt Q61735): the Kd was 4700 nM in data set [1] and above 30000 nM in data set [2].

For the substance “CD47 ECD-alkaline phosphatase ECD (from UniProt Q08722)”, the Kd in data set [3] was 10 nM.

TSP1 (from UniProt P07996): the dissociation constant Kd in data set [4] is 0.012 nM.
